To fix the notation:
B1: Bess1 (antibody)
VH: QVQLRESGPSLVKPSQTLSLTCTVSGISLSDKAVGWVRQAPGKALEWLGSIDAGGSTGYNPGLKSRLSITTDNSKSQVSLSMSGVTTEDSATYYCTTVHQKTLKQKTCPEGYSDDDGCDDSYGCGDDCCCYGGYSDYGGYEYACCSRTYTYEFHVDAWGQGLLVTVSS
VL: QAVLNQPSSVSGSLGQRVSITCSGSSSNVGNGYVSWYQLIPGSAPRTLIYGDTSRASGVPDRFSGSRSGNTATLTISSLQAEDEADYFCASAEDSSSNAVFGSGTTLTVL
notes: also called Bess1_WT; source: Expi293 or 293F cells, transient, purified (Protein A Sepharose or Praesto AP)
B2: ElsE10 (antibody)
VH: KVQLRESGPSLVKPSQTLSLTCTTSGFSLSEKTVGWVRQAPGKPLEWLGTINTSGSGGSNPGLKSRLHITKDNSQSQVSLSLSSVTTADSATYYCTTVHQQTRKRCPDGWSFGWDCGFSGYGSEDCYDDCTDILSSNTLSPTDTYELHVDAWGQGLLVTVSS
VL: QAVLTQPSSVSGSLGQRVSITCSGSSSNVGNGYVSWYQLIPGSAPRTLIYGDTSRASGVPDRFSGSRSGNTATLTISSLQAEDEADYFCASAEGSSSNIVFGVGTTLTVL
notes: source: Expi293 or 293F cells, transient, purified (Protein A Sepharose or Praesto AP)
B3: Bess8 (antibody)
VH: QVQLRESGPSLVKPSQTLSLTCTVSGFSLSDKAVGWVRQAPGKALEWLGSIDIGGSTGYNPGLKSRLSITKDNSKSQVSLSVTSVTTEDSATYYCTIVYQTTKTTKKCPDGYNYDDGCASDLGCGEADCCCYGGDDEYAGHLYSCCSYSHTYEWYVGAWGQGLLVTVSS
VL: QAVLNQPSSVSGSLGQRVSITCSGSSSNVGNGYVSWYQLIPGSAPRTLIYGDTSRASGVPDRFSGSRSGNTATLTISSLQAEDEADYFCASAEDSSSNAVFGSGTTLTVL
notes: as for B2
B4: ElsE6 (antibody)
VH: KVQLQESGPSLVKPSQTLSLTCTTSGFSLSDNAVGWVRQAPGKALEWLGSIDSGGSTGYNPGLKSRLSITKDNSKSQVSLSVSSVTTADSATYYCTTVHQQTRKSCPAGYTLAKDCGFYGYGSEDCYDDCSDILSSHTLSPTTTYELHVDAWGQGLLVTVSS
VL: QAVLTQPSSVSGSLGQRVSITCSGSSTNVGNGYVSWYQLIPGSAPRTLIYGDTNRASGVPDRFSGSRSGNTATLTISSLQAEDEADYFCLSAEDSSSNAIFGSGTTLIVL
notes: as for B2
B5: Bess6 (antibody)
VH: KVQLRESGPSLVKPSQTLSLICTVSGFSLSDKAVGWVRQAPGKALEWLGSIDTAGTTDHHPGLKSRLSITKDNSKNQVSLSLSSVTTEDSATYYCTTVHQPTSKQYSCPDGASVRTGGGWRWLCRGHDCCCVVEYIAYEQTPCTLTRTYEWHIDAWGQGLLVTVSS
VL: QAVLNQPSSVSGSLGQRVSITCSGSSSNVGNGYVSWYQLIPGSAPRTLIYGDTSRASGVPDRFSGSRSGNTATLTISSLQAEDEADYFCASAEDSSSNAVFGSGTTLTVL
notes: as for B2
B6: Bess7 (antibody)
VH: QVQLRESGPSLVKPSQTLSLTCTVSGFSLNDKAVGWVRQAPGRALEWLGSVSTGGSTTYNPGLKPRLSITKDNSKSQISLTVTSVTTEDSATYYCTTVHQTTKTTKECPEGYNWDDGCGSELGCGGADCCCWGGVDEYAGDLYSCCSVAHTYEWYVDAWGQGLLVTVSS
VL: QAVLNQPSSVSGSLGQRVSITCSGSSSNVGNGYVSWYQLIPGSAPRTLIYGDTSRASGVPDRFSGSRSGNTATLTISSLQAEDEADYFCASAEDSSSNAVFGSGTTLTVL
notes: as for B2
B7: ElsE3 (antibody)
VH: KVQLQESGPSLVKPSQTLSLTCATSGFSLSDKTVGWVRQAPGKALEWLGSIDTSGNTGYNPLLKFRLSITKDNSKSQVSLSLSSATTADSATYYCTTVHQQTRKSCPDGYSFGYDCGFHGYGSEDCYPDCSDILTSDVVGPIDAYELHVDAWGQGLLVTVSS
VL: QAVLTQPSSVSGSLGQRVSITCSGSSNNVGNGYVSWYQVIPGSAPRTLIYGDTSRASGVPDRFSGSRSGNTATLTITSLQAEDEADYFCSSAEDSSSNAIFGSGTTLTVL
notes: as for B2
B8: ElsE5 (antibody)
VH: QVQLQESGPSLVKPSQTLSLTCTTSGFSLSDKTVGWVRQAPGKALEWLGSIDTSGRTGYNPGLKSRLDITKDNPKRQVSLSLSSVTTADSATYYCTTVHQQTRKGCPDGWSFGWDCGFHGYGREDCYDDCTDILSSQTLSPTDTYEFHVDAWGQGLLVTVSS
VL: QAVLTQPSSVSGSLGQRVSITCSGSSSNVGNGYVSWYQLIPGSAPRTLIYGDTTRASGVPDRFSGSRSGNTATLSITSLQAEDETDYFCASAEDSSSNAVFGSGTTLTVL
notes: as for B2
B9: Bess3 (antibody)
VH: QVQLRESGPSLVKPSQTLSLTCTVSGFSLSDKAVGWVRQAPGKALEWLGSIDNGENIGYNPGLKSRLSITKDNSKSQVSLSVSSVTTEDSATYYCATVHQTTKTTKQCPDGYNYDDGCASDLGCGEADCCCYGGYDDYGGYLYSCCSYTYTYEWYVDTWGQGLLVTVSS
VL: QAVLNQPSSVSGSLGQRVSITCSGSSSNVGNGYVSWYQLIPGSAPRTLIYGDTSRASGVPDRFSGSRSGNTATLTISSLQAEDEADYFCASAEDSSSNAVFGSGTTLTVL
notes: as for B2
B10: Bess2 (antibody)
VH: KVQLRESGPSLVKPSQTLSLTCTVSGFSLSDKAVGWVRQAPGKALEWLGSIDTGGSTGYNPGLKSRLSITKDNSKSQVSLSVTSVTTEDSTTYYCTTVHQTTKTTKKCPDGYNYDDGCASDLGCGEADCCCYGGYDEYGGYLYSCCSYSYTYEWYVDAWGQGLLVTVSS
VL: QAVLNQPSSVSGSLGQRVSITCSGSSSNVGNGYVSWYQLIPGSAPRTLIYGDTSRASGVPDRFSGSRSGNTATLTISSLQAEDEADYFCASAEDSSSNAVFGSGTTLTVL
notes: as for B2
B11: ElsE8 (antibody)
VH: KVQLQESGPSLVKPSQTLSLTCTTSGFSLSDKGIAWVRQAPGKALEWLGSTDTTGSTNYNPGLKSRVIVTKDNSKSQVSLSLSSVTIADSATYYCTAVVQETRKSCPDGWRFGWDCGFHGYGTEDCYEDCVDILSSETVSSTDRYELHVDAWGQGLLVTVSS
VL: QAVLSQPSSVSGSLGQRVSITCSGSSSNVGNGYVSWYQQFPGSAPRTLIYGDTGRSSGVPDRFSGSRSGNTATLSISSLQAEDEADYFCASAEGSSKHAVFGSGTTLTVL
notes: as for B2
B12: ElsE1 (antibody)
VH: KVQLRESGPSLIKPSQTLSLTCTTSIFSLIDKTVGWVRQAPGKSLEWLGSIDTSGNTGYNPGLKSRLHITKDNSRSQVSLSLSSVTTADSATYYCTTVHQQTRKGCPDGWRFGWDCGFHGYGQEDCYEDCIDILSSQTLSPTDAYEFHVDAWGQGLLVTVSS
VL: QAVLTQPSSVSGSLGQRVSITCSGSSGNVGNGYVSWYQLIPGSAPRTLIYGDTSRASGVPDRFSGSRSGNTATLTITSLQAEDETDYFCASAEGSSNNAVFGSGTTLTVL
notes: as for B2
B13: ElsE11 (antibody)
VH: KVQLRESGPSLVKPSQTLSLTCTTSGFSLSDKTVGWVRQAPGKALEWLGSTDTSGNTGYNPGLKSRLSITKDNSKSQVSLSVSSVSTADSATYYCTTVRQQTRKSCPDGWTLAKDCGFYGYGSEDCYDDCTDILSSNTLSPTTTHEFNVDAWGQGLLVTVSS
VL: QAVLTQPSSVSGSLGQRVSITCSGSSSNTGNGAVSWYQLIPGSAPRTLIYGDTSRTSGVPDRFSGSRSGNIATLTISSLQAEDEGDYFCGSAEDSSSNAIFGSGTTLTVL
notes: as for B2
B14: ElsE4 (antibody)
VH: QVQLRESGPSLVKPSQTLSLTCTTSGFSLSDKTVGWVRQAPGKALEWLGSRDSSGKTAYNPGLKSRLSITNDNSKSQVSLSLSSVSTADSATYYCTTVHQQTRKSCPDGWSFGWDCGFHGYGVGDCYDDCTDILSSQTLSPTDTYELHIDAWGQGLLVTVSS
VL: QAVLTQPSSVSGSLGQTVSITCSGTSSNVGNGYVTWYQVIPRSAPRTLIFGDTSRASGVPDRFSGSRSGNTATLTISSLQAEDEADYFCASAEDTSSNVVFGSGTTLTVL
notes: as for B2
B15: Bess5 (antibody)
VH: QVQLQESGPSLVKPSQTLSLMCAASGFSLSDKTVGWVRQAPGKALEWLGSIDSSGSTGYNPGLKSRLTITKDSSKSQVSLSVSSVTTEDSATYYCTTVHQQTRNKEKTCPGGEDCGIGCCCAGCSATDYGCWDGSSYASYSYIYTYDIHVDAWGQGLLVTVSS
VL: QAVLNQPSSVSGSLGQRVSITCSGSSSNVGNGYVSWYQLIPGSAPRTLIYGDTSRASGVPDRFSGSRSGNTATLTISSLQAEDEADYFCASAEDSSSNAVFGSGTTLTVL
notes: as for B2
B16: ElsE9 (antibody)
VH: KVQLRESGPSLVKPSQTLSLTCTTSGFSFSDKTVGWVRQAPGKALEWLGSIDTSGTTGYNPGLKSRLSITRDDSKSQVSLSLSSVTTADLATYYCTTVRQQVHKTCPQGWRFGWDCGFHGYGSDDCYEDCIDILSSQTLSAEDTYELHVDAWGQGLLVTVSS
VL: QAVLTQPQSVRGSLGQRVSITCSGSSSNVGNGYVSWYQLIPGSAPRTLMYGDTTRASGVPDRFSGSRSGNTATLTISSLQAEDEADYFCASADGSSLHVAFGSGTTLTVL
notes: as for B2
B17: ElsE7 (antibody)
VH: QVQLQESGPSLVKPSQTLSLTCTTSGFSLSDNTVGWVRQAPGKALQWLGSITPSGSTNYNPGLKSRLGITKDNSNSQVSLSLTSATAADSATYYCTTVHQQTRKSCPDGWMFGFDCGFHGWGSEDCVDDCSDILSAQTLSPIYTNAYHVDAWGQGLLVTVSS
VL: QAVLTQPSSVSGSLGQTVSITCSGLSNNGENGDVSWYQLIPGSAPHTLMYGDTSRASGVPDRFSGSRSGNTASLTISSLQAEDEADYFCASTGDEMISLLFGSGTTLTVL
notes: as for B2

From publication doi:10.1101/2024.02.13.580058 (bioRxiv, 2024) come the findings set out here.

In this test the target is BG505 gp120 (HIV-1 isolate BG505 (clade A), UniProt Q2N0S6). As to the kind of experiment: ELISA; 250 ng BG505 gp120 coated on the plate; monoclonal antibodies from 20 µg/mL in seven 6-fold dilutions, 1 hr, room temperature; detected with alkaline phosphatase anti-human F(ab')2. The note with it: both partners purified. A general note: ELISA stands for enzyme-linked immunosorbent assay.
As for B1, the binding result is given as “no binding (tested: 20 µg/mL)”.
The value for B2 was “no binding (tested: 20 µg/mL)”; that for B3 was “no binding (tested: 20 µg/mL)”.
Take B4: the binding result is on record as “no binding (tested: 20 µg/mL)”.
The value for B5 was “no binding (tested: 20 µg/mL)”; that for B6 was “no binding (tested: 20 µg/mL)”.
With B7 the entry was “no binding (tested: 20 µg/mL)”; with B8, “no binding (tested: 20 µg/mL)”; with B9, “no binding (tested: 20 µg/mL)”.
The value for B10 was “no binding (tested: 20 µg/mL)”.
On to B11, for which the binding result was “no binding (tested: 20 µg/mL)”.
As for B12, the binding result is “no binding (tested: 20 µg/mL)”.
In the case of B13, the binding result was “no binding (tested: 20 µg/mL)”.
With B14 the entry was “no binding (tested: 20 µg/mL)”.
Take B15: the binding result is recorded as “no binding (tested: 20 µg/mL)”.
On to B16, for which the binding result is on record as “no binding (tested: 20 µg/mL)”.
In the case of B17, the binding result is reported as “no binding (tested: 20 µg/mL)”.
